This is an account of results in US20100021935A1 (FIBROSTATIN SOCIEDAD LIMITADA, published 2010).

The target in the experiment is T1, recombinant 77-kDa GPBP expressed from pc-n4′ (human, UniProt Q9Y5P4 1-624).
T1 construct: untagged, transient expression in HEK 293 cells; also called 77-kDa GPBP isoform
T1 sequence: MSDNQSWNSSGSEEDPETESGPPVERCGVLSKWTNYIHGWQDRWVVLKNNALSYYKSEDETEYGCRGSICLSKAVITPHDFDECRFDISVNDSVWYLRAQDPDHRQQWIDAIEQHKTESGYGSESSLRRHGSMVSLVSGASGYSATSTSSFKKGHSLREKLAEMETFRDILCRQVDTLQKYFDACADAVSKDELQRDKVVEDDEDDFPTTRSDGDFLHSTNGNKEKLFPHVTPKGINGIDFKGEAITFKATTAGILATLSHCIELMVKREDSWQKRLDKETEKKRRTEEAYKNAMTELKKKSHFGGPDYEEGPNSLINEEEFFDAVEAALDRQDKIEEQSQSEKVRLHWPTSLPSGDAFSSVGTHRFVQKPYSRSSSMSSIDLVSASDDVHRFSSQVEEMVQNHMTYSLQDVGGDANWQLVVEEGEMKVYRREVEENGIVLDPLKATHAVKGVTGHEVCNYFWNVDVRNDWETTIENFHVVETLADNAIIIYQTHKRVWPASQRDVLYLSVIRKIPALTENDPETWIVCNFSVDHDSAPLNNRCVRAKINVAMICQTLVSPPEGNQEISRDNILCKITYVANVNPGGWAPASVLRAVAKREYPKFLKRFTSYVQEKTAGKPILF
Description: ex vivo cross-linking and FLAG immunoprecipitation. The procedure:
Cells were grown up to 70-90% of confluence in either 150-mm plates (native GPBP) or six-well plates (recombinant GPBP). Cross-linking was performed 48 h after transfection or when cells reached the indicated confluence. Briefly, cells were brought to RT by rinsing with PBS and incubated for 10 min with culture medium containing 1% formaldehyde. The cross-link reaction was quenched with 125 mM Gly-HCl in PBS (pH 7.4) for 10 min at RT. Cells were brought to 4° C. by rinsing with ice-chilled PBS and procedure continued at 4° C. Cells were lysed with 1 or 5 ml (six-well or 150-mm plate) of extraction buffer [16 mM Tris-HCl pH 7.5, 160 mM NaCl, 2 mM ethylenediaminetetraacetic acid (EDTA), 1. […] Eluted samples were boiled with electrophoresis sample buffer (2×) for 15 min to reverse cross-linking and further analyzed by SDS-PAGE and either Coomassie blue staining or Western blot.
This was further assessed by ex vivo cross-linking and FLAG-immunoprecipitation of cells expressing or not expressing BM40-FLAG-α3(IV)NC1, a recombinant exportable form of the human α3(IV)NC1 (16), followed by SDS-PAGE analysis of immunoprecipitates (FIG. 4A). […] To further determine that GPBP indeed interacted with FLAG-α3(IV) in the ER, cells expressing or not expressing BM40-FLAG-α3(IV)NC1 were transfected with pc-n4′ and similarly analyzed (FIG. 4B).

B1: FLAG-α3(IV)NC1, recombinant exportable human α3(IV)NC1 domain (BM40-FLAG-α3(IV)NC1) (other, not shown: small tags and cut ends)
chain: GLKGKRGDSGSPATWTTRGFVFTRHSQTTAIPSCPEGTVPLYSGFSFLFVQGNQRAHGQDLGTLGSCLQRFTTMPFLFCNVNDVCNFASRNDYSYWLSTPALMPMNMAPITGRALEPYISRCTVCEGPAIAIAVHSQTTDIPPCPHGWISLWKGFSFIMFTSAGSEGTGQALASPGSCLEEFRASPFLECHGRGTCNYYSNSYSFWLASLNPERMFRKPIPSTVKAGELEKIISRCQVCMKKRH
notes: expressed in HEK 293-FLAG-α3(IV) cells; also called type IV collagen
On to B1, for which the binding result is on record as “binds”.
